The source of these data is US20190324022, “METHODS AND SYSTEMS FOR IDENTIFYING CANDIDATE NUCLEIC ACID AGENT” (APTITUDE MEDICAL SYSTEMS, INC., published 2019).

The target in data set [1] is NGAL (Neutrophil Gelatinase-Associated Lipocalin) (Homo sapiens, UniProt P80188 P80188:21-198). The data set can be described thus: flow; PBSMCT buffer; 1.28 nM in 10% human serum. Particulars: tags: His-Tag; R&D Systems.
Data set [2] concerns the target T1, TNF-alpha (Homo sapiens, UniProt P01375 P01375:77-233). The data set can be described thus: flow; PBSMCT buffer, room temperature, 3 h. The note with it: tags: biotinylated; R&D Systems; chain copies: 3 (inferred). As to the method: (§1) MyOne carboxylic acid magnetic particles were coated with amino-modified candidate nucleic acid agents S01, B01, or VR11 (a previously published TNF-α candidate nucleic acid agent), or with mAb11 antibody (a commercial TNF-α antibody). […] The unbound TNF-α was washed away with PBSMCT, after which streptavidin-conjugated Alexa Fluor 488 was introduced and incubated for 15 minutes to label the bound TNF-α. The particles were washed with PBSMCT and median fluorescence intensities were quantified via FACS.
(§2) Sequences and relative affinities of all candidate nucleic acid agents are shown in the methods above.

Data set [3] concerns the target T2, HRP-2 (Histidine-Rich Protein 2) (UniProt P05227 P05227:22-332).
T2 sequence: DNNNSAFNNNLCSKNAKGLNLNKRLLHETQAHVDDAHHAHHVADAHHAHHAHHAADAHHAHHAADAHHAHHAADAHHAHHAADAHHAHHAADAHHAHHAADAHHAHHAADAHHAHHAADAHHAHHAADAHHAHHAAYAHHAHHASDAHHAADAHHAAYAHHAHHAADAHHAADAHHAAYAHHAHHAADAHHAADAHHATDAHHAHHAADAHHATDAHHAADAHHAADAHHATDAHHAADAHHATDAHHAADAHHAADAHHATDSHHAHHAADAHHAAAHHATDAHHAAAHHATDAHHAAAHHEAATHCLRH
Briefly: flow; PBSMCT buffer; 0.124 nM in 10% human serum. The note with it: tags: His-Tag; Fitzgerald Industries International.

Data set [4] has as its target T1, TNF-alpha. The data set can be described thus: flow; PBSMCT buffer (2.5 mM MgCl2, 1 mM CaCl2), room temperature, 3 h; 0.27 nM in serum. The note with it: tags: biotinylated; R&D Systems; chain copies: 3 (inferred). Here is the method:
as §1, §2

T1 sequence (P01375 77-233, one chain of several): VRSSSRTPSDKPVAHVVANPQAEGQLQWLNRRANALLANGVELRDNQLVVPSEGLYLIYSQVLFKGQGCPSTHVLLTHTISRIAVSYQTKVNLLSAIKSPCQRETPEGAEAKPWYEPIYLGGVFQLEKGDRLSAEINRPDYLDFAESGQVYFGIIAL
Chain of NGAL (Neutrophil Gelatinase-Associated Lipocalin) (P80188 21-198, one chain of several): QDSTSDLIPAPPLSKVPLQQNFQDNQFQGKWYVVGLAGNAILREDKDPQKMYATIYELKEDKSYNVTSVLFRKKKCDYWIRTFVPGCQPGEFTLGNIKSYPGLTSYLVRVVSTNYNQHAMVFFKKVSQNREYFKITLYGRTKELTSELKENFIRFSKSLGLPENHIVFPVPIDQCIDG

B1: NGAL-05 (ssDNA)
DNA: GAATTCCGCCCTCGTCCCATCTCGGCTTGGTATGGCGGAGCTGGATAGTATAGTCGGAACACCAACCGAGAACGGAATTC
modifications: immobilized on magnetic particles
As for B1, the Kd – broadly, a measure of binding affinity in units of concentration – in data set [1] was 0.92 nM. This lies in the sub-nanomolar range.

B2: B01 (ssDNA)
DNA: ATCCAGAGTGACGCAGCAGGTTAAGGTGTAGGTCCGGGTGGGGGGGTGGGTTGGGGGACTGGTGGACACGGTGGCTTAGT
modifications: 5'-amino, coupled to magnetic particles
Consider B2, for which binding in the data set with TNF-alpha [2] was put at a Kd of 0.35 nM.

B3: HRP-2-702 (ssDNA)
DNA: ATCCAGAGTGACGCAGCATTAAATAGGGGTTTGGCTTTGGGTCTGGCATATAGGAACAAGTTTGGACACGGTGGCTTAGT
modifications: immobilized on magnetic particles
For the molecule B3, the Kd in data set [3] came to 0.128 nM.

B4: S01 (ssDNA)
DNA: ATCCAGAGTGACGCAGCATGCTTAAGGGGGGGGCGGGTTAAGGGAGTGGGGAGGGAGCTGGTGTGGACACGGTGGCTTAGT
modifications: 5'-amino, coupled to magnetic particles
Molecule B4 yielded a Kd in the data set with TNF-alpha [4] of 0.19 nM.
